Results: US20220296726A1 (Bicycle, published 2022)
*1 amine or outer side, *2 acyl side, *3 side chain or, on linkers, in order; H or OH if unused. Bridges are numbered along the chain shown (N, C = ends). Where no end group is shown, it is not given here. TATA = O=C(CC[*:1])N1CN(C(=O)CC[*:2])CN(C(=O)CC[*:3])C1

How the values were obtained:
[1] = target: T1, Cyno TREM2 (Cyno, UniProt A0A2K5UY34 49-161); experiment: BLI steady state, cyno TREM2 on sensor
T1 construct: range 19-131; also called Cyno BLI
T1 sequence: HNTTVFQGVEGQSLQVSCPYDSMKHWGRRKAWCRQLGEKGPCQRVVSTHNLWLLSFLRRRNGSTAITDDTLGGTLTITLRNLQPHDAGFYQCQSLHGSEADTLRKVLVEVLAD
Experimental: (§1) Bio-layer interferometry was performed on an Octet RED384® system (Sartorius) at 25° C. in a buffer containing 50 mM HEPES (pH 7.5), 150 mM NaCl and 0.1% Tween. […] Reference wells containing no bicycle peptides and reference sensors loaded with an unrelated protein (His-tagged MLLT3a) were subjected to the same assay protocol and double reference subtraction was used for processing to account for non-specific binding. Traces were analysed using Octet Software (Version 11.0). Association and dissociation curves were globally fit and the response at equilibrium (Req) plotted against concentration to obtain steady-state KD values.

[2] = target: T2, Human TREM2 extracellular domain (ECD), residues 19-131, C-terminally biotinylated, deglycosylated (human, UniProt Q9NZC2 19-131, C-terminally biotinylated; deglycosylated); experiment: BLI steady state, deglycosylated human TREM2 ECD on sensor
T2 construct: range 19-131; loaded on Superstreptavidin biosensors; also called triggering receptor expressed on myeloid cells 2; Human BLI (deglycosylated)
T2 sequence (looked up): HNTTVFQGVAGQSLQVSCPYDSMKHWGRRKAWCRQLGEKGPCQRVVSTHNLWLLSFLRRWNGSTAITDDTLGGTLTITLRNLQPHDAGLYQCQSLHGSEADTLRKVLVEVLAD
Experimental: as §1

[3] = target: T3, TREM2 on human iPSC macrophages (human, UniProt Q9NZC2 19-230); experiment: cell-based or functional assay
T3 sequence (looked up): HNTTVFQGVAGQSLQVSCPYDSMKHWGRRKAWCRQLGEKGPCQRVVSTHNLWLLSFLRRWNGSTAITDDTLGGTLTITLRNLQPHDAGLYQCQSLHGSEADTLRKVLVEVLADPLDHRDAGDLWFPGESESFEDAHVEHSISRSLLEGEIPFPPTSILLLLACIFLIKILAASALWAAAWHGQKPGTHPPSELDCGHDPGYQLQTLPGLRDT

[4] = target: T2, Human TREM2 extracellular domain (ECD), …; experiment: Bio-layer interferometry (Octet), direct binding: biotinylated human TREM2 ECD loaded on Superstreptavidin biosensors, peptide in solution at 0.195 to 12.5 µM (7 traces)
Experimental: as §1

- Kd [1]: 3300 nM
- Kd [2]: 700 nM
- pSYK (µM) [3]: 10.7 µM
- Kd [4]: 680 nM
Binder: ACSEYCFWPFYHCA (linker 2-6-13 via TATA) [BCY16054]
